These results are taken from patent US20240174758A1 (AstraZeneca / MedImmune, published 2024).

Assay [1] has as its target human CCR9 (isoform not given) (human) (UniProt P51686). The experiment in a line: cell-based or functional assay.
Assay [2] deals with T1, human CCR9B (human, UniProt P51686 13-369).
T1 construct: Overexpressed on HEK cells; also called Hu B HEK; hCCR9 isoform B
T1 sequence: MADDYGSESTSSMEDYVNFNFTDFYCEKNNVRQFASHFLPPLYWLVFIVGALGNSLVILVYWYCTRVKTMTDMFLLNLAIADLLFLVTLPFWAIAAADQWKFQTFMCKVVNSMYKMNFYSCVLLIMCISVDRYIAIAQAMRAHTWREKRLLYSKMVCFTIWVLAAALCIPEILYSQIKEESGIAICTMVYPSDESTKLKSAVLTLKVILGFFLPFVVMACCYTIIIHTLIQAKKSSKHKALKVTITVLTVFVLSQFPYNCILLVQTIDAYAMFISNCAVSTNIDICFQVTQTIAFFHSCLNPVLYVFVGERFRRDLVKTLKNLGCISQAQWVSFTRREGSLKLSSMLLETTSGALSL
The experiment in a line: binding to HEK cells expressing human CCR9B (huCCR9B), FL1 counts against Log M, methods of Example 4.

Assay [3] has as its target CCR9 (species and isoform not stated) (UniProt P51686).
The target is the same in assay [4]. The experiment in a line: LigandTracer on CCR9-expressing CHO K1 cells, DyLight 650 labelled IgG, bivalent (1:2) fit, about 22 C.
For assay [5], the target named is T2, human CCR9A (human, UniProt P51686 1-369).
T2 construct: Overexpressed on HEK cells; also called Hu A HEK; hCCR9 isoform A
T2 sequence: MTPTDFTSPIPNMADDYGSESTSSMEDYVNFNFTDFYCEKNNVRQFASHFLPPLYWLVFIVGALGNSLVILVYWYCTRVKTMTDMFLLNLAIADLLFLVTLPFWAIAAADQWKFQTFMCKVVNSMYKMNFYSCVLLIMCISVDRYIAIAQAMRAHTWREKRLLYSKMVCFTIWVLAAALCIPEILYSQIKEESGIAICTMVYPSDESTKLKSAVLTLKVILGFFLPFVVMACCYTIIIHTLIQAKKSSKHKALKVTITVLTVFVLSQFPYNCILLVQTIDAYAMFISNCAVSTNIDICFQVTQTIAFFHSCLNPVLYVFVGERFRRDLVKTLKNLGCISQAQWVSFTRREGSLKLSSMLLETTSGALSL
The experiment in a line: binding to cells expressing human CCR9A, FL1 counts against Log M, methods of Example 4.

In assay [6] the target is CCR9 (species and isoform not stated) (UniProt P51686). The experiment in a line: cell-based or functional assay.
For assay [7], the target named is T3, cynomolgus CCR9 (cynomolgus, UniProt Q0H741 1-369).
T3 sequence: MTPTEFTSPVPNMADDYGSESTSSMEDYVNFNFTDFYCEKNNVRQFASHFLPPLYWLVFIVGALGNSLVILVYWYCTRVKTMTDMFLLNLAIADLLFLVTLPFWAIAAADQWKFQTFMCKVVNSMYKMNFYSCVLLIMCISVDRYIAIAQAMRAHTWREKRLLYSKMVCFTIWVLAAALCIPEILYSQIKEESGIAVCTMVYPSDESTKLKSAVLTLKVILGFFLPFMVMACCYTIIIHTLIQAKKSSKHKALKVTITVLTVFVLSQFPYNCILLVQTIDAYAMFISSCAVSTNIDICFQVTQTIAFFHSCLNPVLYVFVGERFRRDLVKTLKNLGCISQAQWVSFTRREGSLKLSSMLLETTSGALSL
The experiment in a line: cell-based or functional assay.

Assay [8] concerns the target T4, mouse CCR9 (mouse, UniProt Q9WUT7 1-369).
T4 construct: whole, on cells; Overexpressed on HEK cells; also called mCCR9; Mouse HEK
T4 sequence (looked up): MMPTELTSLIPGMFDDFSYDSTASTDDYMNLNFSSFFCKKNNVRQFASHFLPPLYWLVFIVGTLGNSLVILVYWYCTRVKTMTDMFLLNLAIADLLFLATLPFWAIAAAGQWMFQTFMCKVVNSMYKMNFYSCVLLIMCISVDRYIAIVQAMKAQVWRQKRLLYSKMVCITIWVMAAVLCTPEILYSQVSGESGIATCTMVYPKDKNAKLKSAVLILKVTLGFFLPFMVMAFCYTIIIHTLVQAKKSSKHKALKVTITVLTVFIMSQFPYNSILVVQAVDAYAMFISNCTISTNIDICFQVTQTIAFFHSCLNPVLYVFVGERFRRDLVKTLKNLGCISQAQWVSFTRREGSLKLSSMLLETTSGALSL
The experiment in a line: cell binding by the methods of Example 4.

In assay [9] the target is T5, rat CCR9 (rat, UniProt Q8CH33 1-369).
T5 construct: Overexpressed on HEK cells; also called Rat HEK
T5 sequence: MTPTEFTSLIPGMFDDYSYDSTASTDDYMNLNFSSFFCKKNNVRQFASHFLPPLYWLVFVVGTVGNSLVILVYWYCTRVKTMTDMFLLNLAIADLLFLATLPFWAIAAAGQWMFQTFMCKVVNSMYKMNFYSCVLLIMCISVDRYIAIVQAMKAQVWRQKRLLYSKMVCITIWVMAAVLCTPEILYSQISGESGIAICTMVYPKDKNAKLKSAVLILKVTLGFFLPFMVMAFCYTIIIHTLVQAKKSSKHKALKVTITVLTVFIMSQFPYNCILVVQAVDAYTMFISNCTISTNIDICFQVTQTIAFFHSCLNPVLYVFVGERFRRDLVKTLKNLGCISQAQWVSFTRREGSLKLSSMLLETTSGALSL
The assay is described as follows: cell binding by the methods of Example 4.

The target of assay [10] is T1, human CCR9B. The experiment in a line: binding to cells expressing human CCR9B, FL1 counts against Log M, methods of Example 4.
The target in assay [11] is human CCR9 (isoform not given) (human), P51686. The experiment in a line: cell-based or functional assay.
For assay [12] the target is unchanged.

B1: Humanised AB1020243 (AB1020243-fgl) (antibody, V domains shown)
VH: QVQLVQSGAEVKKPGASVKVSCKASGYTFTSYWMHWVRQAPGQGLEWIGVIYPGNSDTRYNQKFKGRVTITRDTSASTAYMELSSLRSEDTAVYYCTRDYYSNYVYYYAMDYWGQGTTVTVSS
VL: DIVMTQTPLSLPVTPGEPASISCRSSQSLVHSNGNTYLHWYLQKPGQSPQLLIYKVSNRFSGVPDRFSGSGSGTDFTLKISRVEAEDVGVYYCSQSTHVPWTFGQGTKLEIK
notes: For LigandTracer it was labelled with DyLight 650 on an engineered cysteine in CH2; also called humanised AB1020243 afuc
For orientation: koff means the first-order rate constant of dissociation. For B1, in [1], the Potency, NK cell activation assay (NK-92 MI CD16a NFAT luciferase, in vitro ADCC bioassay) is 800 pM. Further, the binding result in assay [2] is on record as “binds”. In [3], this molecule displayed an EC50 of a CPS dose-response curve (potency; luminescence counts per second as in the NK cell activation assay of Example 4); target cells not named on the sheet (M (axis Log M; no unit in the table)) of 7.3e-09. In [4], the koff amounted to 4.3e-05 s⁻¹.

B2: AB243LO0326 (antibody, V domains shown)
VH: QVQLVQSGAEVKKPGASVKVSCKASGYTFTSYWMHWVRQAPGQGLEWIGVIYPGNSDTRYNQKFKGRVTITRDTSASTAYMELSSLRSEDTAVYYCTRDYYSNYVYYYAMDYWGQGTTVTVSS
VL: DIVMTQTPLSLPVTPGEPASISCRSSQSLVHPNRNTYLHWYLQKPGQSPQLLIYKVSNRFSGVPDRFSGSGSGTDFTLKISRVEAEDVGVYYCSQSTHVPWTFGQGTKLEIK
notes: CDR-optimised humanised antibody, a-fuc huIgG1 (afucosylated in all experiments); For LigandTracer it was labelled with DyLight 650 on an engineered cysteine in CH2; also called CDR-optimised AB1020243
Take B2: the binding result in [5] is listed as “binds”; in assay [8], “no binding”; in assay [9], “no binding”; in assay [10], “binds”. This molecule displayed a CCL25 induced CCR9 internalisation (FACS) in [6] of 2 nM. Moreover, the “EC50, killing of cynomolgus CD4+CCR9+ PBMC” value in assay [7] came to 30 pM. This molecule returned an EC50, killing of PBMC in assay [11] of 4 pM. This molecule showed an EC50, killing of human CD4+CCR9+ PBMC in assay [11] of 4 to 5 pM. The molecule further came in with a Kd in assay [4] of 90 pM. For the same molecule, in assay [12], the IC50 (read off the curve) amounted to 700 pM.

B3: AB243LO0331 (antibody, V domains shown)
VH: QVQLVQSGAEVKKPGASVKVSCKASGYTFTSYWMHWVRQAPGQGLEWIGVIYPGNSDTRYNQKFKGRVTITRDTSASTAYMELSSLRSEDTAVYYCTRDYYSNYVYYYAMDYWGQGTTVTVSS
VL: DIVMTQTPLSLPVTPGEPASISCRSSQSLVHSNTNTYLHWYLQKPGQSPQLLIYKVSNRFSGVPDRFSGSGSGTDFTLKISRVEAEDVGVYYCSQSTHVPWTFGQGTKLEIK
notes: CDR-optimised humanised antibody, a-fuc huIgG1 (afucosylated in all experiments); The constant regions are not expressly tied to it
Regarding B3, the binding result in assay [8] and in assay [9] was “no binding” each time. Besides, the IC50 (read off the curve) in assay [12] was 700 pM.
